The results in this text go back to paper PMC4499140 (Nucleic Acids Research, 2015).

In series [1] the target is T1, Rv1222 (Mycobacterium tuberculosis H37Rv) (UniProt L0T905).
T1 sequence: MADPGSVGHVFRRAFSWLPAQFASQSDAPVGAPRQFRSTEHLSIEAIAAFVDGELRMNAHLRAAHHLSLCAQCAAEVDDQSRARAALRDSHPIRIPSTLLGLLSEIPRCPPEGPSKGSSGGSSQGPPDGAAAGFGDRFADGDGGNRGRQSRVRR
In words: fluorescence anisotropy. Background: Fluorescence polarisation rises when a labelled molecule tumbles more slowly, as on binding a larger partner.

In series [2] the target is T2, Mycobacterium tuberculosis sigma factor E (Mycobacterium tuberculosis, UniProt P9WGG7 1-257).
T2 sequence: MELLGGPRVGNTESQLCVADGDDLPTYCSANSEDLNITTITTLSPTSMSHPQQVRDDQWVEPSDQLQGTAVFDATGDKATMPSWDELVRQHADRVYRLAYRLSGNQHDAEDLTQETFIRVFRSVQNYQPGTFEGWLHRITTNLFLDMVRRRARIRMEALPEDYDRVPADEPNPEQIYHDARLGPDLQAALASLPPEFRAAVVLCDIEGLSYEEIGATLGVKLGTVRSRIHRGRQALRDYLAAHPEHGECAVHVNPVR
In words: fluorescence polarisation.

Series [3] deals with E. coli DNA polymerase (Klenow fragment) (E. coli, UniProt P00582 324-928). The experiment in a line: fluorescence polarisation.
Sequence of E. coli DNA polymerase (Klenow fragment) (P00582 324-928): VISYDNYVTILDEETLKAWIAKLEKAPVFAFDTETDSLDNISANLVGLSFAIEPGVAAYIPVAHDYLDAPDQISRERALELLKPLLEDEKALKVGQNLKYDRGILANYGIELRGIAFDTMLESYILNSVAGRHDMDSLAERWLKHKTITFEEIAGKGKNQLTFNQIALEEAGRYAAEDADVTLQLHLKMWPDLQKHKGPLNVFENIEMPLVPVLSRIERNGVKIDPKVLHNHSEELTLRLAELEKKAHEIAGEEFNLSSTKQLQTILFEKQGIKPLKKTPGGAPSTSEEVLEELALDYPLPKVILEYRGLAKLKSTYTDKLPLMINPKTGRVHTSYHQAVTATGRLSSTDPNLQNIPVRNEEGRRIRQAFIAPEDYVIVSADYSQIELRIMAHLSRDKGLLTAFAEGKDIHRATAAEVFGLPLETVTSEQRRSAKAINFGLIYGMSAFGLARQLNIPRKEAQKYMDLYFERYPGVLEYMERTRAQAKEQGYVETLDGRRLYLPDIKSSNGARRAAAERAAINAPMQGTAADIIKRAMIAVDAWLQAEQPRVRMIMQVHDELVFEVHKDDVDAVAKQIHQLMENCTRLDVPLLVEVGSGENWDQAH
Series [4] concerns the target T3, Mycobacterium tuberculosis sigma factor A (Mycobacterium tuberculosis, UniProt P9WGI1 1-528).
T3 sequence: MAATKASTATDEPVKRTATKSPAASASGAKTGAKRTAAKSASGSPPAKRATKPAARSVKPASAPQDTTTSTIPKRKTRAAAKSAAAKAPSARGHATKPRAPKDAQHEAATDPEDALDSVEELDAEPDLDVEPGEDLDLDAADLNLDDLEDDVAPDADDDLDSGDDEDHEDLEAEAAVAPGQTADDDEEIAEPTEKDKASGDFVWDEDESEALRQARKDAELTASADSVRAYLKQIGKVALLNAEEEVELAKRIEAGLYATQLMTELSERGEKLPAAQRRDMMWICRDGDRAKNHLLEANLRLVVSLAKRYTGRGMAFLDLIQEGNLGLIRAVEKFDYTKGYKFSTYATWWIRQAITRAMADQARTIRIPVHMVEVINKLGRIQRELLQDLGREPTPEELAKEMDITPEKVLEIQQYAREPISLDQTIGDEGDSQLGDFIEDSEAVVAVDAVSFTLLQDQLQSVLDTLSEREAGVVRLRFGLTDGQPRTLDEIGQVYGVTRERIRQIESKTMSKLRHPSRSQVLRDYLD
The experiment in a line: fluorescence polarisation.

The term Kd denotes the concentration at which binding is half-saturated. In series [1], “GTGAGTATCTCGCAGTCCGACGCGTCGTTGGCCGCCGTCCCCGCCGTGGATCAGTTCGATCCGTCGTCAGGTGCATCAGGTGGCTACGACACCCCGCTGGGCATCACCAATCCGCCCATCGACGAGTTGCTGGACCGCGTCTCGAGCAAATACGCCCTCGTGATCTATGCGGCAAAGCGTGCCCGGCAGATCAACGACTACTACAACCAGCTTGGCGAGGGCATCCTCGAATATGTCGGTCCGCTGGTTGAGCCGGGGTTGCAAGAGAAGCCGTTGTCCATCGCGTTGCGCGAGATCCACGCCGATCTGCTCGAGCACACCGAGGGCGAGTAG (double strand) [promoterless DNA fragment]” yielded a Kd of 52 nM.

B1: Rv1222 of Mycobacterium tuberculosis, TMR labelled (natural protein)
chain: T1 sequence
Take B1: the figures for the dissociation constant (Kd) in series [2], in series [3] and in series [4] were approximately 270 nM, 245 ± 78 nM and approximately 690 nM, respectively.
